Assay results: PMC3245871 (Journal of molecular biology, 2011)
Where two headings read alike, the source gives them in different places.

What was measured:
Z13-IL22-2 [1] = target: T1, Z13-IL22-2 (human, UniProt Q9GZX6, SLADNNT (64–70) replaced by residues WNWDDIT); test: ITC
Z13-IL22-1 (human) = target: T2, Z13-IL22-1 (human) (UniProt Q9GZX6); test: ITC
T2 sequence: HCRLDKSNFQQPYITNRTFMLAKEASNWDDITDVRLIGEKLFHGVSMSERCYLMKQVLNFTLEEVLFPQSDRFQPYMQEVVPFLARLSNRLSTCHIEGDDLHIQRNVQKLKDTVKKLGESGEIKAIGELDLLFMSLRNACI

Z13-IL22-2 [2] = target: T1, Z13-IL22-2; test: ITC; remark: listed apart in the source
Z13-IL22-2 [3] = target: T1, Z13-IL22-2; test: ITC; remark: listed apart in the source
Z13-IL22-2 [4] = target: T1, Z13-IL22-2; test: ITC; remark: listed apart in the source
Z13-IL22-2 [5] = target: T1, Z13-IL22-2; test: ELISA
WT IL-22 = WT IL-22 (human, UniProt Q9GZX6); test: ELISA
mAb Z13e1 (human) = test: ELISA

B1: Fab Z13e1 (Fab, V domains shown)
VH: EVQLLESGPGLLKPSETLSLTCTVSGGSMINYYWSWIRQPPGERPQWLGHIIYGGTTKYNPSLESRITISRDISKNQFSLRLNSVTAADTAIYYCARVAIGVSGFLNYYYYMDVWGSGTAVTVSS
VL: ELTQSPATLSLSPGERATLSCRASQSVGRNLGWYQQKPGQAPRLLIYDASNRATGIPARFSGSGSGTDFTLTISSLEPEDFAVYYCQARLLLPQTFGQGTKVEIK
For B1, the dH (Z13-IL22-2 [1]) was -10.8 kcal/mol, the Kd (Z13-IL22-1 (human)) was 15000 nM and the dH (Z13-IL22-1 (human)) was -7.47 kcal/mol. The dH (Z13-IL22-2 [2]) was -13.9 kcal/mol, the Kd (Z13-IL22-2 [3]) was 73 nM and the dH (Z13-IL22-2 [4]) was -7.46 kcal/mol.

B2: mAb Z13e1 (antibody, V domains shown)
VH: EVQLLESGPGLLKPSETLSLTCTVSGGSMINYYWSWIRQPPGERPQWLGHIIYGGTTKYNPSLESRITISRDISKNQFSLRLNSVTAADTAIYYCARVAIGVSGFLNYYYYMDVWGSGTAVTVSS
VL: ELTQSPATLSLSPGERATLSCRASQSVGRNLGWYQQKPGQAPRLLIYDASNRATGIPARFSGSGSGTDFTLTISSLEPEDFAVYYCQARLLLPQTFGQGTKVEIK
B2 was tested, and the IC50 (Z13-IL22-2 [5]) was ~150 nM and the binding result (WT IL-22) was “no binding”.

B3: negative peptide control 94.1 (peptide)
peptide: NWFDITNWLWYIKKKK
For B3, the IC50 (mAb Z13e1 (human)) was > 5000 nM.
